T1: human NgR mutant 163 (mutated to alanine) (human, UniProt Q9BZR6 27-445)
T1 sequence: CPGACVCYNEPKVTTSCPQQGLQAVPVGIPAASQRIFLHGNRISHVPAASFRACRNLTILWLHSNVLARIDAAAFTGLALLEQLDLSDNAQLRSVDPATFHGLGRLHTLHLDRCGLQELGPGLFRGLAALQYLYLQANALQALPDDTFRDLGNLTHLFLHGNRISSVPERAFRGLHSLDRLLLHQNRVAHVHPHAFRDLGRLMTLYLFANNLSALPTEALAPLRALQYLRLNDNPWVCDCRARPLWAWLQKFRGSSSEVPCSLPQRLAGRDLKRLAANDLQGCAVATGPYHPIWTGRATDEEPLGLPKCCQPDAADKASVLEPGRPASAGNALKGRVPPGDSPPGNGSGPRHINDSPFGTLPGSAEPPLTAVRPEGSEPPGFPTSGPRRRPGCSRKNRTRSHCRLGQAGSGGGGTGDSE

B1: human NgR mutant 67, 68, 71 (mutated to alanine) (receptor)
chain: CPGACVCYNEPKVTTSCPQQGLQAVPVGIPAASQRIFLHGAAISAVPAASFRACRNLTILWLHSNVLARIDAAAFTGLALLEQLDLSDNAQLRSVDPATFHGLGRLHTLHLDRCGLQELGPGLFRGLAALQYLYLQDNALQALPDDTFRDLGNLTHLFLHGNRISSVPERAFRGLHSLDRLLLHQNRVAHVHPHAFRDLGRLMTLYLFANNLSALPTEALAPLRALQYLRLNDNPWVCDCRARPLWAWLQKFRGSSSEVPCSLPQRLAGRDLKRLAANDLQGCAVATGPYHPIWTGRATDEEPLGLPKCCQPDAADKASVLEPGRPASAGNALKGRVPPGDSPPGNGSGPRHINDSPFGTLPGSAEPPLTAVRPEGSEPPGFPTSGPRRRPGCSRKNRTRSHCRLGQAGSGGGGTGDSE
B2: human NgR mutant 82, 179 (mutated to alanine) (receptor)
chain: CPGACVCYNEPKVTTSCPQQGLQAVPVGIPAASQRIFLHGNRISHVPAASFRACRALTILWLHSNVLARIDAAAFTGLALLEQLDLSDNAQLRSVDPATFHGLGRLHTLHLDRCGLQELGPGLFRGLAALQYLYLQDNALQALPDDTFRDLGALTHLFLHGNRISSVPERAFRGLHSLDRLLLHQNRVAHVHPHAFRDLGRLMTLYLFANNLSALPTEALAPLRALQYLRLNDNPWVCDCRARPLWAWLQKFRGSSSEVPCSLPQRLAGRDLKRLAANDLQGCAVATGPYHPIWTGRATDEEPLGLPKCCQPDAADKASVLEPGRPASAGNALKGRVPPGDSPPGNGSGPRHINDSPFGTLPGSAEPPLTAVRPEGSEPPGFPTSGPRRRPGCSRKNRTRSHCRLGQAGSGGGGTGDSE
B3: human NgR mutant 133, 136 (mutated to alanine) (receptor)
chain: CPGACVCYNEPKVTTSCPQQGLQAVPVGIPAASQRIFLHGNRISHVPAASFRACRNLTILWLHSNVLARIDAAAFTGLALLEQLDLSDNAQLRSVDPATFHGLGRLATLALDRCGLQELGPGLFRGLAALQYLYLQDNALQALPDDTFRDLGNLTHLFLHGNRISSVPERAFRGLHSLDRLLLHQNRVAHVHPHAFRDLGRLMTLYLFANNLSALPTEALAPLRALQYLRLNDNPWVCDCRARPLWAWLQKFRGSSSEVPCSLPQRLAGRDLKRLAANDLQGCAVATGPYHPIWTGRATDEEPLGLPKCCQPDAADKASVLEPGRPASAGNALKGRVPPGDSPPGNGSGPRHINDSPFGTLPGSAEPPLTAVRPEGSEPPGFPTSGPRRRPGCSRKNRTRSHCRLGQAGSGGGGTGDSE
B4: human NgR mutant 67, 68, 71, 89, 90, 92 (mutated to alanine) (receptor)
chain: CPGACVCYNEPKVTTSCPQQGLQAVPVGIPAASQRIFLHGAAISAVPAASFRACRNLTILWLAANALARIDAAAFTGLALLEQLDLSDNAQLRSVDPATFHGLGRLHTLHLDRCGLQELGPGLFRGLAALQYLYLQDNALQALPDDTFRDLGNLTHLFLHGNRISSVPERAFRGLHSLDRLLLHQNRVAHVHPHAFRDLGRLMTLYLFANNLSALPTEALAPLRALQYLRLNDNPWVCDCRARPLWAWLQKFRGSSSEVPCSLPQRLAGRDLKRLAANDLQGCAVATGPYHPIWTGRATDEEPLGLPKCCQPDAADKASVLEPGRPASAGNALKGRVPPGDSPPGNGSGPRHINDSPFGTLPGSAEPPLTAVRPEGSEPPGFPTSGPRRRPGCSRKNRTRSHCRLGQAGSGGGGTGDSE
B5: human NgR mutant 87, 89, 133, 136 (mutated to alanine) (receptor)
chain: CPGACVCYNEPKVTTSCPQQGLQAVPVGIPAASQRIFLHGNRISHVPAASFRACRNLTILALASNVLARIDAAAFTGLALLEQLDLSDNAQLRSVDPATFHGLGRLATLALDRCGLQELGPGLFRGLAALQYLYLQDNALQALPDDTFRDLGNLTHLFLHGNRISSVPERAFRGLHSLDRLLLHQNRVAHVHPHAFRDLGRLMTLYLFANNLSALPTEALAPLRALQYLRLNDNPWVCDCRARPLWAWLQKFRGSSSEVPCSLPQRLAGRDLKRLAANDLQGCAVATGPYHPIWTGRATDEEPLGLPKCCQPDAADKASVLEPGRPASAGNALKGRVPPGDSPPGNGSGPRHINDSPFGTLPGSAEPPLTAVRPEGSEPPGFPTSGPRRRPGCSRKNRTRSHCRLGQAGSGGGGTGDSE
B6: AP-Nogo-66 (ligand, UniProt Q9NQC3 1055-1120, looked up)
chain: RIYKGVIQAIQKSDEGHPFRAYLESEVAISEELVQKYSNSALGHVNCTIKELRRLFLVDDLVDSLK
notes: domain: Nogo-66; also called AP-Ng-66; Nogo-66 ligand; not shown: alkaline phosphatase (AP) moiety

biological target: B6; assay: AP-ligand binding to transfected COS-7 cells
Description: (§1) In order to probe the NgR domains that interact with Aβ and Nogo-66, a strategy based on the crystal structure of NgR was employed. A number of human NgR surface-accessible residues were mutated to Ala either individually or as groups of adjacent residues (Table 3), and resultant ligand binding characteristics were assessed. The ligand concentrations were AP, 30 nM, AP-Nogo-66, 5 nM, AP-Aβ(1-28), 50 nM. NgR mutagenesis has been previously described. Hu et al., J Neurosci 25:5298-5304 (2005); Fournier et al., J Neurosci 23:1416-1423 (2003). The expression of each mutant NgR protein was verified by immunohistochemical detection at the surface of cells transfected with expression vector (FIG. 2a). Bound AP was stained and measured using NIH image software. Mutants of human NgR were detected on the surface of transfected COS-7 immunofluorescently. For each of the mutants with altered binding characteristics, expression of immunoreactive NgR protein with electrophoretic mobility similar to wild type was also confirmed by immunoblot (FIG. 2c). Whole COS-7 cell lysates expressing NgR mutants were subjected to SDS-PAGE and blotted with anti-NgR antibodies. The mobility of each mutant was indistinguishable from wild type NgR, except for the mutations in N-linked glycosylation sites (N82 and N179). The binding of both AP-Aβ(1-28) and AP-Nogo-66 ligands to cells expressing this collection of NgR mutant proteins was assessed at concentrations equal to the predetermined Kd's of the ligands (FIG. 2b, d).

Binding result, no binding (tested: 5 nM):
B1
B2
B3
B4
B5

biological target: T1, human NgR mutant 163 (mutated to …); assay: AP-ligand binding to transfected COS-7 cells
Description: as §1

Binding result, no binding (tested: 5 nM):
B6

— patent publication US20120219567A1 (Biogen, published 2012)
